Assay results: US20220144895A1, “DE NOVO DESIGN OF TUNABLE PH-DRIVEN CONFORMATIONAL SWITCHES” (University of Washington, priority 2019, published 2022)
“Also recorded” adds a separate entry of the source.

B1: pRO-2: designed pH-responsive homotrimer, SEQ ID NO: 1-2 (protein)
chain 1: MGSHHHHHHGSGSENLYFQGSEYEIRKALEELKAATAELKRATASLRAITEELKKNPSEDALVEHNRAIVEHNAIIVEHNRIIAAVLELIVRAIK
chain 2: SEYEIRKALEELKAATAELKRATASLRAITEELKKNPSEDALVEHNRAIVEHNAIIVEHNRIIAAVLELIVRAIK
B2: pRO-2 I56V: pRO-2 mutant, SEQ ID NO: 17-18 (protein)
chain 1: MGSHHHHHHGSGSENLYFQGSEYEIRKALEELKAATAELKRATASLRAITEELKKNPSEDALVEHNRAIVEHNAIVVEHNRIIAAVLELIVRAIK
chain 2: GSEYEIRKALEELKAATAELKRATASLRAITEELKKNPSEDALVEHNRAIVEHNAIVVEHNRIIAAVLELIVRAIK

What was measured:
[1] = Native mass spectrometry of pH-induced changes in oligomeric state; assay type: physicochemical; settings: for pH response of oligomeric state (pH-induced disassembly): pH ~7 to ~3
Outline: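 Protein in 200 mM ammonium acetate/50 mM triethylammonium acetate, acid-adjusted to each target pH, was held 30 min on ice and sprayed by nESI at 5 μM monomer or 1.67 μM trimer. Oligomer fractions came from integrated charge-state series, then fitted by nonlinear least squares.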

[2] = Size-exclusion chromatography (SEC); assay type: physicochemical; settings: Superdex 75, Na2PO4-Citrate buffer pH 4
Protocol: Cells were lysed by microfluidization in the presence of 1 mM PMSF. Lysates were clarified by centrifugation at 24,000 ref at 4° C. for at least 30 minutes. Proteins were purified by Immobilized metal affinity chromatography (IMAC): supernatant was applied to Ni-NTA (Qiagen) columns pre-equilibrated in lysis buffer. The column was washed twice with 15 column volumes (CV) of wash buffer (25 mM Tris pH 8.0 at room temperature, 300 mM NaCl, 40 mM Imidazole), followed by 3-5 CV of high-salt wash buffer (25 mM Tris pH 8.0 at room temperature, 1 M NaCl, 40 mM Imidazole) then an additional 15 CV of wash buffer. Protein was eluted with 250 mM Imidazole, and buffer-exchanged into 25 mM Tris pH 8.0 and 150 mM NaCl without imidazole for cleavage of the N-terminal hexahistidine tag by purified hexahistidine-tagged TEV protease (with the exception of design pRO-1, which was cleaved using restriction grade thrombin (EMD Millipore 69671-3) at room temperature for 4 hours or overnight, using a 1:3000 dilution of enzyme into sample solution). A second Ni-NTA step was used to remove hexahistidine tag, uncleaved sample and the hexahistidine-tagged TEV protease, and the cleaved proteins were then […], 150 mM NaCl, and 2% glycerol.

U2-OS cells = test: Lysosomal pH with LysoSensor Yellow/Blue DND-160; assay type: cell-based; settings: 5 μM protein, 1 hr, LysoSensor yellow/blue ratio
Protocol: The final concentration of 5 μM+36GFP fusion proteins was incubated with the LAMP1-HaloTag™ expressing U-2 OS cells on a pre-coated coverslip for 1 hr. Cells were fixed with 4% paraformaldehyde for 20 min at room temperature (RT) and quenched/rinsed with PBS supplemented with 30 mM glycine. Then, the coverslips were mounted on FluoroSave™ (Millipore). For pH measurement of the lysosome, LysoSensor™ Yellow/Blue DND-160 was incubated at 1 mg/mL overnight and washed twice prior to imaging (54). The final concentration of 5 μM protein was incubated with the LAMP1-HaloTag expressing U2-OS cells that were loaded with 1 mg/mL LysoSensor™ Yellow/Blue DND-160 for 1 hr. In separate chambers, LysoSensor™ Yellow/Blue DND-160 loaded cells were incubated with bafilomycin A1 (1 μM) and chloroquine (50 μM) for 1 hr as a control. For live cell confocal microscopy, Zeiss 880 was used to collect LysoSensor™ Yellow/Blue signal. LysoSensor™ Yellow/Blue was excited with a 405 nm laser, and its emission was collected into the two regions (Blue=410-499 nm Yellow=500-600 nm) using a Plan-Apochromat 63×/1.4 oil DIC objective. The ratio of the two channels was calculated using the home-built software in Matlab™.

Molecule | pH response of oligomeric state (pH-induced disassembly) ([1]; native MS) | reversibility of disassembly ([1]; pH lowered with acetic acid, then raised by ammonia or buffer exchange) | state by SEC at pH 4 [2] | cooperativity of the pH-induced transition ([1]; native MS at different pH values) | pH transition point of disassembly (pH set point, pH0) ([1]; native MS, evaluated from pH 7 down to pH 3) | change of lysosomal pH (U2-OS cells) | change of lysosomal pH (U2-OS cells; listed as pRO-256V)
B1 | predominantly monomeric at pH 4 | re-association of monomers into trimer | soluble aggregate | – | – | – | –
B2 | most pH-sensitive | – | – | Neither of the mutations substantially affect the cooperativity | approximately 5.8 pH | larger changes in lysosomal pH than two drugs; also recorded: increases the lysosomal pH more than the small molecule drugs | raises the lysosomal pH
